Experimental data reported in patent US20220016130A1 (MAYO FOUNDATION FOR MEDICAL EDUCATION AND RESEARCH, published 2022).
One block for each binder: values may come before it.

Tests used:
BRD4 [1] = molecular target: T1, BRD4 (human, UniProt O60885 1-1362); test: co-IP from 293T cells transfected with Flag-tagged USPs and HA-BRD4
T1 construct: One entry covers endogenous, Flag-tagged and HA-tagged full-length BRD4; also called FLAG-BRD4; Flag-BRD4
Method: (§1) To immunoprecipitate the ectopically expressed FLAG-tagged proteins, transfected cells were lysed 24 hours post-transfection in BC100 buffer. The whole-cell lysates were immunoprecipitated with the monoclonal anti-FLAG antibody-conjugated M2 agarose beads (Sigma-Aldrich) at 4° C. overnight. After three washes with lysis buffer, followed by two washes with BC100 buffer, the bound proteins were eluted using FLAG-Peptide (Sigma-Aldrich) prepared in BC100 for 3 hours at 4° C. The eluted protein sample was resolved by SDS-PAGE. To immunoprecipitate the endogenous proteins, cells were lysed with 1× cell lysis buffer (Cell Signaling Technology), and the lysate was centrifuged. The supernatant was precleared with protein A/G beads (Sigma-Aldrich) and incubated with the indicated antibody and protein A/G beads at 4° C. overnight. Beads were washed five times with lysis buffer and resuspended in sample buffer and analyzed by SDS-PAGE.

BRD4 [2] = molecular target: T1, BRD4; test: GST pull-down of Flag-BRD4 from PC-3 cells
BRD4 [3] = molecular target: T1, BRD4; test: co-IP from 293T cells transfected with Flag-tagged USPs (DUB3 and other DUBs) and HA-BRD4
Method: as §1

BRD3 = molecular target: T2, BRD3 (human, UniProt Q15059 1-726); test: co-IP of endogenous proteins in PC-3 cells
T2 construct: One entry covers endogenous and FLAG-tagged full-length BRD3; also called FLAG-BRD3; Flag-BRD3
Method: as §1

BRD2 = molecular target: T3, BRD2 (human, UniProt P25440 1-801); test: co-IP of endogenous proteins in PC-3 cells
T3 construct: One entry covers endogenous and FLAG-tagged full-length BRD2; also called FLAG-BRD2; Flag-BRD2
Method: as §1

NCOR2 = NCOR2 (human, UniProt Q9Y618 1-2514, limits assumed); test: reciprocal co-IP of endogenous proteins in C4-2 cells
Method: as §1

T2 sequence (Q15059 whole entry): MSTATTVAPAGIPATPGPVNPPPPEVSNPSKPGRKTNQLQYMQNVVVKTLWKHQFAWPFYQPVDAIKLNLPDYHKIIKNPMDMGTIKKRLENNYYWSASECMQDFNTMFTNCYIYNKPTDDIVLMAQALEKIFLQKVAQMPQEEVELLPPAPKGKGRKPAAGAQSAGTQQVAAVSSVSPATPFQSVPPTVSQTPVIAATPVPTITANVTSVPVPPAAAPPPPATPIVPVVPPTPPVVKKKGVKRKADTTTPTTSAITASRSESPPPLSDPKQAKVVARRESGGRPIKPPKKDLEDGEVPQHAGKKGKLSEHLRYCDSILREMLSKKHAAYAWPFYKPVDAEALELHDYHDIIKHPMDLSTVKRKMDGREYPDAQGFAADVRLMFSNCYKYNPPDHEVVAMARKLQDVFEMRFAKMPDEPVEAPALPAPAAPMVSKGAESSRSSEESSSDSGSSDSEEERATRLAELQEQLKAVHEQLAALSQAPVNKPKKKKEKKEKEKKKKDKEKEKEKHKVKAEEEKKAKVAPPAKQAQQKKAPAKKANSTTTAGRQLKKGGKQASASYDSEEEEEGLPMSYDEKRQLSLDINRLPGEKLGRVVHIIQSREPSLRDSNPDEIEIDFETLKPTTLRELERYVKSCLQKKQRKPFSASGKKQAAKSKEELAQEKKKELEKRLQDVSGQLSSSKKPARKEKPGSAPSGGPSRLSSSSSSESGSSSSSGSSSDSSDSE
Chain of NCOR2 (Q9Y618 whole entry): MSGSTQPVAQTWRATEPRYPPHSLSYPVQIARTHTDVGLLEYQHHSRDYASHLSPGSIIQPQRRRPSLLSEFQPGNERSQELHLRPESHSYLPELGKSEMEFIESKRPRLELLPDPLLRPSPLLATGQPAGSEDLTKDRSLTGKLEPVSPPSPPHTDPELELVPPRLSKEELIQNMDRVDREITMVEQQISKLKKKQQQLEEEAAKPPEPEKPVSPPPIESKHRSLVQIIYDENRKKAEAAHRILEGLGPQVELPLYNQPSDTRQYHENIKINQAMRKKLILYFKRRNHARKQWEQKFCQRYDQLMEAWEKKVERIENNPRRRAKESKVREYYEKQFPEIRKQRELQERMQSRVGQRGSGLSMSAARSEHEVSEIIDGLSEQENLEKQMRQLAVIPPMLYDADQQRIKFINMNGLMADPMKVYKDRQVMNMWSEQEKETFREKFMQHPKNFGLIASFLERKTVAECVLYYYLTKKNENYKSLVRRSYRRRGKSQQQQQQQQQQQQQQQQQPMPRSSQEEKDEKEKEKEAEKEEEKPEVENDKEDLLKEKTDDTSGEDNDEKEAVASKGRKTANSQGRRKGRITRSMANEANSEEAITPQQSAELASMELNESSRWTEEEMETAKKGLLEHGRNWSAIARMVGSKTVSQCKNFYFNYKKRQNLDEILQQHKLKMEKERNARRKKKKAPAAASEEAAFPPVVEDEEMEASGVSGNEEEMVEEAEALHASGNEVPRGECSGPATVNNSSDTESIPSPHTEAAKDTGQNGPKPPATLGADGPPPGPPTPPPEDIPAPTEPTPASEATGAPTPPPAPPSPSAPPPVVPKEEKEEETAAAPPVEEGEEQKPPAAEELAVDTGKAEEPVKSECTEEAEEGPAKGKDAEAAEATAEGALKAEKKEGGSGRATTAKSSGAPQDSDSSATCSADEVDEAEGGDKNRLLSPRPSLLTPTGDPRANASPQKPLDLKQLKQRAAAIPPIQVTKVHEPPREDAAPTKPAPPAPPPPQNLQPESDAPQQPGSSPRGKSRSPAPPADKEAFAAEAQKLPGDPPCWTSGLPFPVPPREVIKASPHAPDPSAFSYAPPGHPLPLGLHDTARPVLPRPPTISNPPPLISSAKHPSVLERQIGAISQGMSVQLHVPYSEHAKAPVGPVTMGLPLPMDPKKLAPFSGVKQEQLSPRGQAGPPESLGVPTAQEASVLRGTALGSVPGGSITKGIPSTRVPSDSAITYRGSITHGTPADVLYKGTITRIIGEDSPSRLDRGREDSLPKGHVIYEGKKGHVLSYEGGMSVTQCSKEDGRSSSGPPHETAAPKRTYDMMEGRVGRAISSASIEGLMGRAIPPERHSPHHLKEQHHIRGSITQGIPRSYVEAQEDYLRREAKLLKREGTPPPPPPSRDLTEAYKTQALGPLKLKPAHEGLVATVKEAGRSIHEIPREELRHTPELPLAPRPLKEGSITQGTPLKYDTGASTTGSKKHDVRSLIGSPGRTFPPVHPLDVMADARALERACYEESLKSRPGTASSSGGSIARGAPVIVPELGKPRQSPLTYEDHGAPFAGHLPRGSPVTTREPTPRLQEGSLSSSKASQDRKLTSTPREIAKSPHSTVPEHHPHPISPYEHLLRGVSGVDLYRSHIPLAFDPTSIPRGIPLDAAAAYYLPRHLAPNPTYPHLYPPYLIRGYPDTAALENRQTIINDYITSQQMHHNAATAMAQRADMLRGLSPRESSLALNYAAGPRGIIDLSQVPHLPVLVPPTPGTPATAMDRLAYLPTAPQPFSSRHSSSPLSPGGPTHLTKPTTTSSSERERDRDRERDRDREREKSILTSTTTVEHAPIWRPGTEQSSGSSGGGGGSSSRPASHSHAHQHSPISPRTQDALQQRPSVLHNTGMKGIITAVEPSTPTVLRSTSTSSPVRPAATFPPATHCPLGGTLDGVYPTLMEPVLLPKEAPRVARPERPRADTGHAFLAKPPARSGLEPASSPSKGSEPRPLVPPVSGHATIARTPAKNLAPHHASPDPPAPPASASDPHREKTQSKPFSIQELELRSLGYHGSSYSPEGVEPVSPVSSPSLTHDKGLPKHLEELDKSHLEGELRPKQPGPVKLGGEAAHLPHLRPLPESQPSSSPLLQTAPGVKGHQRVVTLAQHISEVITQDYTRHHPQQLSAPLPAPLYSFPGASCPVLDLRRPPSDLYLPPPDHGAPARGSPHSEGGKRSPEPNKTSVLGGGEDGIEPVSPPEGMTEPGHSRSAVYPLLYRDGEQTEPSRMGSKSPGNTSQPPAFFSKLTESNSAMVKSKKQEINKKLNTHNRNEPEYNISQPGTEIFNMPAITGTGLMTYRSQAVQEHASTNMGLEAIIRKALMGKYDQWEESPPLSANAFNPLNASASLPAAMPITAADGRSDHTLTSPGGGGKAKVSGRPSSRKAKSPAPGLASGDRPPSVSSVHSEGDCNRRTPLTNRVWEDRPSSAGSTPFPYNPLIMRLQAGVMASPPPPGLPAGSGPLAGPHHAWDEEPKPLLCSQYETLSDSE
T3 sequence (P25440 whole entry): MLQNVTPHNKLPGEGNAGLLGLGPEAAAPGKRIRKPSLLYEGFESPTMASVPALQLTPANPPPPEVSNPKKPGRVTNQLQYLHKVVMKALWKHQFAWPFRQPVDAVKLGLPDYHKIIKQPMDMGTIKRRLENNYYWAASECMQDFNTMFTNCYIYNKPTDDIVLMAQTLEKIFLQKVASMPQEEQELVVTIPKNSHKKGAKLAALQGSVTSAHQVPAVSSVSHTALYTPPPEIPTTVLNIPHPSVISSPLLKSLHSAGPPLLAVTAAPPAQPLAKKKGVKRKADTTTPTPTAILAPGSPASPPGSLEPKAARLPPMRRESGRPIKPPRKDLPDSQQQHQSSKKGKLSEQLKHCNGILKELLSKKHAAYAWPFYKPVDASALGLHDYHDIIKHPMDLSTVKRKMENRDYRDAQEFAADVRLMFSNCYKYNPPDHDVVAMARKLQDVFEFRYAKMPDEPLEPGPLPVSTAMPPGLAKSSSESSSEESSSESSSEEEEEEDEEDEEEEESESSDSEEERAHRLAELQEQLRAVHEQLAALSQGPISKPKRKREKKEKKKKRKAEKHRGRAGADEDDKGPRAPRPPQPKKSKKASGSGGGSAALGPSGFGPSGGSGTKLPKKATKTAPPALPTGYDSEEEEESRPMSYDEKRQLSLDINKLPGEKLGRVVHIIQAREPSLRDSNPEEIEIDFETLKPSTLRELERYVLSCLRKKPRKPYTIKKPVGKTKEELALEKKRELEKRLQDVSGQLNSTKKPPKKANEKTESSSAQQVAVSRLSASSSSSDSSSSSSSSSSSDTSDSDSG

B1: Flag-USP15 (enzyme, UniProt Q9Y4E8 1-981, looked up)
chain: MAEGGAADLDTQRSDIATLLKTSLRKGDTWYLVDSRWFKQWKKYVGFDSWDKYQMGDQNVYPGPIDNSGLLKDGDAQSLKEHLIDELDYILLPTEGWNKLVSWYTLMEGQEPIARKVVEQGMFVKHCKVEVYLTELKLCENGNMNNVVTRRFSKADTIDTIEKEIRKIFSIPDEKETRLWNKYMSNTFEPLNKPDSTIQDAGLYQGQVLVIEQKNEDGTWPRGPSTPKSPGASNFSTLPKISPSSLSNNYNNMNNRNVKNSNYCLPSYTAYKNYDYSEPGRNNEQPGLCGLSNLGNTCFMNSAIQCLSNTPPLTEYFLNDKYQEELNFDNPLGMRGEIAKSYAELIKQMWSGKFSYVTPRAFKTQVGRFAPQFSGYQQQDCQELLAFLLDGLHEDLNRIRKKPYIQLKDADGRPDKVVAEEAWENHLKRNDSIIVDIFHGLFKSTLVCPECAKISVTFDPFCYLTLPLPMKKERTLEVYLVRMDPLTKPMQYKVVVPKIGNILDLCTALSALSGIPADKMIVTDIYNHRFHRIFAMDENLSSIMERDDIYVFEININRTEDTEHVIIPVCLREKFRHSSYTHHTGSSLFGQPFLMAVPRNNTEDKLYNLLLLRMCRYVKISTETEETEGSLHCCKDQNINGNGPNGIHEEGSPSEMETDEPDDESSQDQELPSENENSQSEDSVGGDNDSENGLCTEDTCKGQLTGHKKRLFTFQFNNLGNTDINYIKDDTRHIRFDDRQLRLDERSFLALDWDPDLKKRYFDENAAEDFEKHESVEYKPPKKPFVKLKDCIELFTTKEKLGAEDPWYCPNCKEHQQATKKLDLWSLPPVLVVHLKRFSYSRYMRDKLDTLVDFPINDLDMSEFLINPNAGPCRYNLIAVSNHYGGMGGGHYTAFAKNKDDGKWYYFDDSSVSTASEDQIVSKAAYVLFYQRQDTFSGTGFFPLDRETKGASAATGIPLESDEDSNDNDNDIENENCMHTN
notes: not shown: Flag tag
binding result (BRD4 [1]): no binding

B2: Flag-USP49 (enzyme, UniProt Q70CQ1 1-688, looked up)
chain: MDRCKHVGRLRLAQDHSILNPQKWCCLECATTESVWACLKCSHVACGRYIEDHALKHFEETGHPLAMEVRDLYVFCYLCKDYVLNDNPEGDLKLLRSSLLAVRGQKQDTPVRRGRTLRSMASGEDVVLPQRAPQGQPQMLTALWYRRQRLLARTLRLWFEKSSRGQAKLEQRRQEEALERKKEEARRRRREVKRRLLEELASTPPRKSARLLLHTPRDAGPAASRPAALPTSRRVPAATLKLRRQPAMAPGVTGLRNLGNTCYMNSILQVLSHLQKFRECFLNLDPSKTEHLFPKATNGKTQLSGKPTNSSATELSLRNDRAEACEREGFCWNGRASISRSLELIQNKEPSSKHISLCRELHTLFRVMWSGKWALVSPFAMLHSVWSLIPAFRGYDQQDAQEFLCELLHKVQQELESEGTTRRILIPFSQRKLTKQVLKVVNTIFHGQLLSQVTCISCNYKSNTIEPFWDLSLEFPERYHCIEKGFVPLNQTECLLTEMLAKFTETEALEGRIYACDQCNSKRRKSNPKPLVLSEARKQLMIYRLPQVLRLHLKRFRWSGRNHREKIGVHVVFDQVLTMEPYCCRDMLSSLDKETFAYDLSAVVMHHGKGFGSGHYTAYCYNTEGGFWVHCNDSKLNVCSVEEVCKTQAYILFYTQRTVQGNARISETHLQAQVQSSNNDEGRPQTFS
notes: not shown: Flag tag
binding result (BRD4 [1]): no binding

B3: Flag-USP13 (enzyme, UniProt Q92995 1-863, looked up)
chain: MQRRGALFGMPGGSGGRKMAAGDIGELLVPHMPTIRVPRSGDRVYKNECAFSYDSPNSEGGLYVCMNTFLAFGREHVERHFRKTGQSVYMHLKRHVREKVRGASGGALPKRRNSKIFLDLDTDDDLNSDDYEYEDEAKLVIFPDHYEIALPNIEELPALVTIACDAVLSSKSPYRKQDPDTWENELPVSKYANNLTQLDNGVRIPPSGWKCARCDLRENLWLNLTDGSVLCGKWFFDSSGGNGHALEHYRDMGYPLAVKLGTITPDGADVYSFQEEEPVLDPHLAKHLAHFGIDMLHMHGTENGLQDNDIKLRVSEWEVIQESGTKLKPMYGPGYTGLKNLGNSCYLSSVMQAIFSIPEFQRAYVGNLPRIFDYSPLDPTQDFNTQMTKLGHGLLSGQYSKPPVKSELIEQVMKEEHKPQQNGISPRMFKAFVSKSHPEFSSNRQQDAQEFFLHLVNLVERNRIGSENPSDVFRFLVEERIQCCQTRKVRYTERVDYLMQLPVAMEAATNKDELIAYELTRREAEANRRPLPELVRAKIPFSACLQAFSEPENVDDFWSSALQAKSAGVKTSRFASFPEYLVVQIKKFTFGLDWVPKKFDVSIDMPDLLDINHLRARGLQPGEEELPDISPPIVIPDDSKDRLMNQLIDPSDIDESSVMQLAEMGFPLEACRKAVYFTGNMGAEVAFNWIIVHMEEPDFAEPLTMPGYGGAASAGASVFGASGLDNQPPEEIVAIITSMGFQRNQAIQALRATNNNLERALDWIFSHPEFEEDSDFVIEMENNANANIISEAKPEGPRVKDGSGTYELFAFISHMGTSTMSGHYICHIKKEGRWVIYNDHKVCASERPPKDLGYMYFYRRIPS
notes: not shown: Flag tag
binding result (BRD4 [1]): no binding

B4: GST-DUB3 C-terminal fragment (other, UniProt Q6R6M4 399-530, looked up)
chain: TDRRATQGELKRDHPCLQAPELDERLVERATQESTLDHWKFPQEQNKTKPEFNVRKVEGTLPPNVLVIHQSKYKCGMKNHHPEQQSSLLNLSSTTRTDQESVNTGTLASLQGRTRRSKGKNKHSKRALLVCQ
notes: also called C-terminal fragment of DUB3; not shown: glutathione S-transferase (GST) tag
binding result (BRD4 [2]): no binding

B7: HDAC10 (enzyme, human, UniProt Q969S8 1-669, looked up)
chain: MGTALVYHEDMTATRLLWDDPECEIERPERLTAALDRLRQRGLEQRCLRLSAREASEEELGLVHSPEYVSLVRETQVLGKEELQALSGQFDAIYFHPSTFHCARLAAGAGLQLVDAVLTGAVQNGLALVRPPGHHGQRAAANGFCVFNNVAIAAAHAKQKHGLHRILVVDWDVHHGQGIQYLFEDDPSVLYFSWHRYEHGRFWPFLRESDADAVGRGQGLGFTVNLPWNQVGMGNADYVAAFLHLLLPLAFEFDPELVLVSAGFDSAIGDPEGQMQATPECFAHLTQLLQVLAGGRVCAVLEGGYHLESLAESVCMTVQTLLGDPAPPLSGPMAPCQSALESIQSARAAQAPHWKSLQQQDVTAVPMSPSSHSPEGRPPPLLPGGPVCKAAASAPSSLLDQPCLCPAPSVRTAVALTTPDITLVLPPDVIQQEASALREETEAWARPHESLAREEALTALGKLLYLLDGMLDGQVNSGIAATPASAAAATLDVAVRRGLSHGAQRLLCVALGQLDRPPDLAHDGRSLWLNIRGKEAAALSMFHVSTPLPVMTGGFLSCILGLVLPLAYGFQPDLVLVALGPGHGLQGPHAALLAAMLRGLAGGRVLALLEENSTPQLAGILARVLNGEAPPSLGPSSVASPEDVQALMYLRGQLEPQWKMLQCHPHLVA
binding result (NCOR2): binds

The remaining lines, values ahead:

binding result (BRD4 [3]): binds | binding result (BRD3): no binding | binding result (BRD2): no binding
B5: DUB3 (enzyme, human, UniProt Q6R6M4 1-530, looked up)
chain: MEDDSLYLGGEWQFNHFSKLTSSRPDAAFAEIQRTSLPEKSPLSSEARVDLCDDLAPVARQLAPRKKLPLSSRRPAAVGAGLQNMGNTCYENASLQCLTYTPPLANYMLSREHSQTCQRPKCCMLCTMQAHITWALHSPGHVIQPSQALAAGFHRGKQEDAHEFLMFTVDAMKKACLPGHKQVDHHSKDTTLIHQIFGGCWRSQIKCLHCHGISDTFDPYLDIALDIQAAQSVKQALEQLVKPEELNGENAYHCGLCLQRAPASKTLTLHTSAKVLILVLKRFSDVTGNKLAKNVQYPECLDMQPYMSQQNTGPLVYVLYAVLVHAGWSCHDGHYFSYVKAQEGQWYKMDDAKVTACSITSVLSQQAYVLFYIQKSEWERHSESVSRGREPRALGAEDTDRRATQGELKRDHPCLQAPELDERLVERATQESTLDHWKFPQEQNKTKPEFNVRKVEGTLPPNVLVIHQSKYKCGMKNHHPEQQSSLLNLSSTTRTDQESVNTGTLASLQGRTRRSKGKNKHSKRALLVCQ
notes: One entry covers endogenous, HA-tagged and Flag-tagged full-length DUB3; also called USP17L2; USP17

binding result (BRD4 [1]): no binding
B6: Flag-USP28 (enzyme, UniProt Q96RU2 1-1077, looked up)
chain: MTAELQQDDAAGAADGHGSSCQMLLNQLREITGIQDPSFLHEALKASNGDITQAVSLLTDERVKEPSQDTVATEPSEVEGSAANKEVLAKVIDLTHDNKDDLQAAIALSLLESPKIQADGRDLNRMHEATSAETKRSKRKRCEVWGENPNPNDWRRVDGWPVGLKNVGNTCWFSAVIQSLFQLPEFRRLVLSYSLPQNVLENCRSHTEKRNIMFMQELQYLFALMMGSNRKFVDPSAALDLLKGAFRSSEEQQQDVSEFTHKLLDWLEDAFQLAVNVNSPRNKSENPMVQLFYGTFLTEGVREGKPFCNNETFGQYPLQVNGYRNLDECLEGAMVEGDVELLPSDHSVKYGQERWFTKLPPVLTFELSRFEFNQSLGQPEKIHNKLEFPQIIYMDRYMYRSKELIRNKRECIRKLKEEIKILQQKLERYVKYGSGPARFPLPDMLKYVIEFASTKPASESCPPESDTHMTLPLSSVHCSVSDQTSKESTSTESSSQDVESTFSSPEDSLPKSKPLTSSRSSMEMPSQPAPRTVTDEEINFVKTCLQRWRSEIEQDIQDLKTCIASTTQTIEQMYCDPLLRQVPYRLHAVLVHEGQANAGHYWAYIYNQPRQSWLKYNDISVTESSWEEVERDSYGGLRNVSAYCLMYINDKLPYFNAEAAPTESDQMSEVEALSVELKHYIQEDNWRFEQEVEEWEEEQSCKIPQMESSTNSSSQDYSTSQEPSVASSHGVRCLSSEHAVIVKEQTAQAIANTARAYEKSGVEAALSEVMLSPAMQGVILAIAKARQTFDRDGSEAGLIKAFHEEYSRLYQLAKETPTSHSDPRLQHVLVYFFQNEAPKRVVERTLLEQFADKNLSYDERSISIMKVAQAKLKEIGPDDMNMEEYKKWHEDYSLFRKVSVYLLTGLELYQKGKYQEALSYLVYAYQSNAALLMKGPRRGVKESVIALYRRKCLLELNAKAASLFETNDDHSVTEGINVMNELIIPCIHLIINNDISKDDLDAIEVMRNHWCSYLGQDIAENLQLCLGEFLPRLLDPSAEIIVLKEPPTIRPNSPYDLCSRFAAVMESIQGVSTVTVK
notes: not shown: Flag tag
